How the values were obtained:
HCAVSMCs = experiment: Flow cytometric intracellular uptake, retention and half-life (2 h treatment); conditions: fluorescence 0 and 5 days after treatment removal; listed as MK2i
Procedure: HCAVSMCs were grown to 80-90% confluence, harvested, and seeded at 20,000 cells/well in a 24 well plate and allowed to adhere overnight in low serum media (DMEM, 1% FBS, and 1% P/S). […] Following treatment, cells were washed with PBS −/−, washed with CellScrub buffer (Genlantis) for 10 minutes at room temperature to remove extracellular polyplexes and/or peptide, washed 2× in PBS −/−, and given fresh complete growth media. Cells were then incubated for an additional 0, 12, 24, 72, or 120 hours. Cells were then washed with PBS −/−, trypsinized, and resuspended in 0.1% Trypan blue in PBS (−/−) for analysis on a FACSCalibur flow cytometer (Becton Dickinson) with BD CellQuest™ Pro software (V 5.2). Data was exported and analyzed with FlowJo software (V 7.6.4). All samples were run in triplicate.

FGFR2(N549H)(h) = FGFR2(N549H)(h) (Homo sapiens, UniProt P21802, N549H); experiment: Kinase Profiling Assay; type: biochemical
SGK2(h) = biological target: T1, SGK2(h) (Homo sapiens, UniProt Q9HBY8); experiment: Kinase Profiling Assay; type: biochemical; conditions: 100 μM
T1 sequence (Q9HBY8 1-367): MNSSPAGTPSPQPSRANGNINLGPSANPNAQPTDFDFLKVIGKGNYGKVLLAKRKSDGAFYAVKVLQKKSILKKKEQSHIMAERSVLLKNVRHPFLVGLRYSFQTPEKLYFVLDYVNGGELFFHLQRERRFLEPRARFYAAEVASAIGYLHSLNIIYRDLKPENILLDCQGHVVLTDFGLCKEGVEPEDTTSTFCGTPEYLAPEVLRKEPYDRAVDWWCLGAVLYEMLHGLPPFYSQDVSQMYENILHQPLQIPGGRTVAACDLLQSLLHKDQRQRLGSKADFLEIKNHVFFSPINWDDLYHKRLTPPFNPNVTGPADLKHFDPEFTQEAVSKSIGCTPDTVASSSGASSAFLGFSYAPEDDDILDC

eEF-2K(h) = eEF-2K(h) (Homo sapiens, UniProt O00418); experiment: Kinase Profiling Assay; type: biochemical; conditions: 100 μM
Aurora-A(h) = biological target: T2, Aurora-A(h) (Homo sapiens, UniProt O14965); experiment: Kinase Profiling Assay; type: biochemical; conditions: 100 μM
T2 sequence (O14965 1-403): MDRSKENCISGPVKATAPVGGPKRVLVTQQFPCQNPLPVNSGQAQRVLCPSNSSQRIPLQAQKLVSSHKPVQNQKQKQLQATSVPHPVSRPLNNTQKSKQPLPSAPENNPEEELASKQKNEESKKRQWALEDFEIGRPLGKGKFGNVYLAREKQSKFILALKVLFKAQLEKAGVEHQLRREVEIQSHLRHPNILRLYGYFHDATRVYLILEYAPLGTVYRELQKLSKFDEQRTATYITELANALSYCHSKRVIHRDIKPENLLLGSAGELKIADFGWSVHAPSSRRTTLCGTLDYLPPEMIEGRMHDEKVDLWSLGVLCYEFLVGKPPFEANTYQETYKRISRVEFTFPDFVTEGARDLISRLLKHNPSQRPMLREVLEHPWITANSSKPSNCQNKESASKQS

CDK2/cyclinA(h) = CDK2/cyclinA(h) (Homo sapiens, UniProt P24941); experiment: Kinase Profiling Assay; type: biochemical; conditions: 100 μM
VRK2(h) = VRK2(h) (Homo sapiens, UniProt Q86Y07); experiment: Kinase Profiling Assay; type: biochemical; conditions: 100 μM
Sequence of VRK2(h) (Q86Y07 whole entry): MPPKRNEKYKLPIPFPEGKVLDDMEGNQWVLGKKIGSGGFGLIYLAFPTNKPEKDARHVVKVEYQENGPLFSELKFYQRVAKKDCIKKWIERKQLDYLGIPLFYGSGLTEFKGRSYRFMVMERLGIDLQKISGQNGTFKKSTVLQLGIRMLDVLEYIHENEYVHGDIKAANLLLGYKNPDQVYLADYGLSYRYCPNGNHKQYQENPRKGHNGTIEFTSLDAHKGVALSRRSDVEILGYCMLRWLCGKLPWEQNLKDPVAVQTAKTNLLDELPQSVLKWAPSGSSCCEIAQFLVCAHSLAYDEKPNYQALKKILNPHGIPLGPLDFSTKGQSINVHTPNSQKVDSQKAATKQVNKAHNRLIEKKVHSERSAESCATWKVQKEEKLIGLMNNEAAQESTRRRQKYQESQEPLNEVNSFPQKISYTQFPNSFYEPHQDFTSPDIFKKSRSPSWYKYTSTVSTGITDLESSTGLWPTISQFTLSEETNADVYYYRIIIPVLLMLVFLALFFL

Ab1(Y253F)(h) = Ab1(Y253F)(h) (Homo sapiens, UniProt P00519, Y253F); experiment: Kinase Profiling Assay; type: biochemical; conditions: 100 μM
CHK2(h) = CHK2(h) (Homo sapiens, UniProt O96017); experiment: Kinase Profiling Assay; type: biochemical; conditions: 100 μM
Sequence of CHK2(h) (O96017 whole entry): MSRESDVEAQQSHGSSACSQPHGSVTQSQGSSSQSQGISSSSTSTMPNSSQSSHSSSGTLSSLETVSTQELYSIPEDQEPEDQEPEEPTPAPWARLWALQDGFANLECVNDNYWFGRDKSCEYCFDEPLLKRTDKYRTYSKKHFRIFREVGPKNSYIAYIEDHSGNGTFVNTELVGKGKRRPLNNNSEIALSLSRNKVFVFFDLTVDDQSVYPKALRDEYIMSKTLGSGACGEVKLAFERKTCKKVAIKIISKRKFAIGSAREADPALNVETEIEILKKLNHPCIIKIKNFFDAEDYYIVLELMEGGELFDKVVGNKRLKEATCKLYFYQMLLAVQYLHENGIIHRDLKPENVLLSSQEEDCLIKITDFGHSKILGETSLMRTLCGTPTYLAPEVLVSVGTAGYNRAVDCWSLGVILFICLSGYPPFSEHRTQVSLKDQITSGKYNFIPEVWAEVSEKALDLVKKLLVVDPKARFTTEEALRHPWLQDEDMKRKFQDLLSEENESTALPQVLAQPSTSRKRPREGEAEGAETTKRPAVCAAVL

PKBγ(h) = PKBγ(h) (Homo sapiens, UniProt Q9Y243); experiment: Kinase Profiling Assay; type: biochemical; conditions: 100 μM
Sequence of PKBγ(h) (Q9Y243 whole entry): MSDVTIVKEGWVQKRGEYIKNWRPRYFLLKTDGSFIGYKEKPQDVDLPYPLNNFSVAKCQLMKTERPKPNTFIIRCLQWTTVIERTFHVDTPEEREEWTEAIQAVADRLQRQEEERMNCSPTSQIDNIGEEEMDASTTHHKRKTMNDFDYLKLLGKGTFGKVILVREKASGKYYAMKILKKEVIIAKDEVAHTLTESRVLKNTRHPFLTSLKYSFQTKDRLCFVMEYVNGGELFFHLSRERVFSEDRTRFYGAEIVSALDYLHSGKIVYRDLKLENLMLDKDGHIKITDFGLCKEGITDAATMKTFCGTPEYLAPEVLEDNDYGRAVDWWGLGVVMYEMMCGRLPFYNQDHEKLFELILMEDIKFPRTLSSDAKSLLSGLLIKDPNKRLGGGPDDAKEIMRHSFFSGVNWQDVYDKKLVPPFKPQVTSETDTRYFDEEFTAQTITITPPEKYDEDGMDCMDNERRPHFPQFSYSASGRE

JNK2α2(h) = JNK2α2(h) (Homo sapiens, UniProt P45984); experiment: Kinase Profiling Assay; type: biochemical; conditions: 100 μM
CDK2/cyclinE(h) = CDK2/cyclinE(h) (Homo sapiens, UniProt P24941); experiment: Kinase Profiling Assay; type: biochemical; conditions: 100 μM
Ab1(H396P)(h) = Ab1(H396P)(h) (Homo sapiens, UniProt P00519, H396P); experiment: Kinase Profiling Assay; type: biochemical; conditions: 100 μM
IGF-1R(h) = IGF-1R(h) (Homo sapiens, UniProt P08069); experiment: Kinase Profiling Assay; type: biochemical; conditions: 100 μM
Plk1(h) = Plk1(h) (Homo sapiens, UniProt P53350); experiment: Kinase Profiling Assay; type: biochemical; conditions: 100 μM
Sequence of Plk1(h) (P53350 whole entry): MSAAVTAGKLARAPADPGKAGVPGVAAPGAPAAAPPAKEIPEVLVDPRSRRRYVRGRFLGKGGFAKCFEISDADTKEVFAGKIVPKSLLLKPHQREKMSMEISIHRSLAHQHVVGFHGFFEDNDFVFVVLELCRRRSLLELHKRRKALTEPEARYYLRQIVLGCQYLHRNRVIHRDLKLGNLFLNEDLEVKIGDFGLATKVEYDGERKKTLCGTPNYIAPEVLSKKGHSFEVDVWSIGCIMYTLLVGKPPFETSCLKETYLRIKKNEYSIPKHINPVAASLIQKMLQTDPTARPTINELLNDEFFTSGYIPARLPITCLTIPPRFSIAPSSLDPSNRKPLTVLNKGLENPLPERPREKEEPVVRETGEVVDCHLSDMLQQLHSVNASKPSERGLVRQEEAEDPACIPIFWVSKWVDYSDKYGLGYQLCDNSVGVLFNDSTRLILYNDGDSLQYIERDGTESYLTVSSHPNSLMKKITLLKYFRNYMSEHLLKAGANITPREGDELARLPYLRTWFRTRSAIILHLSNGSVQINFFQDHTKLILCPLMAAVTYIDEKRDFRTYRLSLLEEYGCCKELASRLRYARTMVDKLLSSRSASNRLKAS

TAK1(h) = biological target: T3, TAK1(h) (Homo sapiens, UniProt O43318); experiment: Kinase Profiling Assay; type: biochemical; conditions: 100 μM
T3 sequence (O43318 1-303 limits assumed): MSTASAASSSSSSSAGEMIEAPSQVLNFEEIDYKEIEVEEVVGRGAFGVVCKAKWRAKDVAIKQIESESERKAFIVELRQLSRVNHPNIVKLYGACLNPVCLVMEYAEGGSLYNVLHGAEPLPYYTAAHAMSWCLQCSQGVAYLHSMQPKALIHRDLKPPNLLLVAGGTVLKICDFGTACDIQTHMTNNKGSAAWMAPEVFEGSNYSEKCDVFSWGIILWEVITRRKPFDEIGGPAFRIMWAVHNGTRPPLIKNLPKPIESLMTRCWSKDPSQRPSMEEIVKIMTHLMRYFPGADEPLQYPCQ

Tie2(R849W)(h) = Tie2(R849W)(h) (Homo sapiens, UniProt Q02763, R849W); experiment: Kinase Profiling Assay; type: biochemical; conditions: 100 μM
Sequence of Tie2(R849W)(h) (Q02763 23-1124 R849W): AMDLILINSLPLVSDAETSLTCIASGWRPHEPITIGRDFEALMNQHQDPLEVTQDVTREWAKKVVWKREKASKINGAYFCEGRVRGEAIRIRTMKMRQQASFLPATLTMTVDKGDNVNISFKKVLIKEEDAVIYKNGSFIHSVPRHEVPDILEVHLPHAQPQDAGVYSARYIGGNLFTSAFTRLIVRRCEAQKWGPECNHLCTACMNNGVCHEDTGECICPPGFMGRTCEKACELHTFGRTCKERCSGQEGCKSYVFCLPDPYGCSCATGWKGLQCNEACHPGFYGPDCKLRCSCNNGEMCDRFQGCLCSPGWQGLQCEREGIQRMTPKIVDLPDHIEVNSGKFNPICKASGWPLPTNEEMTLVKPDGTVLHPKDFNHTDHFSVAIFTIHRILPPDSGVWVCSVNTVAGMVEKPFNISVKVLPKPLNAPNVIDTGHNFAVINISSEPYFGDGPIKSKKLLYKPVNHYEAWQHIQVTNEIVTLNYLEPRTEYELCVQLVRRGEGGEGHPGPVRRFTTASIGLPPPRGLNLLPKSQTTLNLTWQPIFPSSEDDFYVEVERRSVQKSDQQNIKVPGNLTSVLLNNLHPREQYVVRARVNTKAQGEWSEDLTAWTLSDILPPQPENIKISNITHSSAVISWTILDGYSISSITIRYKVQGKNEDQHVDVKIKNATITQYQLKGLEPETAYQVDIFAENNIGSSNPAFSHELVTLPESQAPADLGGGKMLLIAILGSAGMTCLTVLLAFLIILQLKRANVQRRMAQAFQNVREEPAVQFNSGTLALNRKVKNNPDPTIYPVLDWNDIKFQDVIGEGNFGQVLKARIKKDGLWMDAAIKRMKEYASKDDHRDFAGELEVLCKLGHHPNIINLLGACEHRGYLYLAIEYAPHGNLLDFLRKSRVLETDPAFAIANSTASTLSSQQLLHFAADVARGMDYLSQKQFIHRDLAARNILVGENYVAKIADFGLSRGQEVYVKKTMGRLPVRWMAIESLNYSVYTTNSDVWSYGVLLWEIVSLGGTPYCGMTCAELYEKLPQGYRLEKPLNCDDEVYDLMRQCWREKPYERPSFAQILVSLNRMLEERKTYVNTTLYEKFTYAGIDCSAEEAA

EphA2(h) = EphA2(h) (Homo sapiens, UniProt P29317); experiment: Kinase Profiling Assay; type: biochemical; conditions: 100 μM

Sequence of FGFR2(N549H)(h) (P21802 22-821 N549H): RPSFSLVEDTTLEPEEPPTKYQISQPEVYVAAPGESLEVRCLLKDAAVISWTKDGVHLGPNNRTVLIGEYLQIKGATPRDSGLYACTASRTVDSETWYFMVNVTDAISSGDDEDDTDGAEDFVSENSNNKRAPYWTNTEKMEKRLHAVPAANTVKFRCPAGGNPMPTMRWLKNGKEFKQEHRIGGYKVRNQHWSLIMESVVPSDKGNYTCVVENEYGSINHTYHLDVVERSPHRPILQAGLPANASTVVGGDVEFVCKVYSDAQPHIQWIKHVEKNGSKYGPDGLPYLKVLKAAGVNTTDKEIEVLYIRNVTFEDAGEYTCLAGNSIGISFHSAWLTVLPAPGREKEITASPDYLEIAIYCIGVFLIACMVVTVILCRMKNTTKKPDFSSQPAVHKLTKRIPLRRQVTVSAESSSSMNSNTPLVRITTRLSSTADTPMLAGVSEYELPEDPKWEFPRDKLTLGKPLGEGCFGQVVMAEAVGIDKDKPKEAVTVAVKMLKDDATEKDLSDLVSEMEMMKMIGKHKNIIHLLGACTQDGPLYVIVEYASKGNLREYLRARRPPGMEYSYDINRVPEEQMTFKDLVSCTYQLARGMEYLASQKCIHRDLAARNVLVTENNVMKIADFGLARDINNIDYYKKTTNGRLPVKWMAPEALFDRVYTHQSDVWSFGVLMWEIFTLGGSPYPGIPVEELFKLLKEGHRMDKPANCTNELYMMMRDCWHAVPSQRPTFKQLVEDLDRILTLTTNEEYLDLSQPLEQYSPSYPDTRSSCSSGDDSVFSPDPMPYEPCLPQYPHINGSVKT

H-YARAAARQARAKALARQLGVAA-OH [MMI-0100]
intracellular half-life (t1/2) (HCAVSMCs): 98.4 h
activity at 100 µM (FGFR2(N549H)(h)): 95%

HRRIKAWLKKIKALARQLGVAA (Mammalian) [MMI-0500]
% activity (SGK2(h)): -1%
% activity (eEF-2K(h)): 43%
% activity (Aurora-A(h)): 110%
% activity (CDK2/cyclinA(h)): 87%
% activity (VRK2(h)): 169%
% activity (Ab1(Y253F)(h)): 29%
% activity (CHK2(h)): 13%
% activity (PKBγ(h)): 20%
% activity (JNK2α2(h)): 81%
% activity (CDK2/cyclinE(h)): 19%
% activity (Ab1(H396P)(h)): 51%

YARAAARQARAKALNRQLGVA (Mammalian) [MMI-0200]
% activity (IGF-1R(h)): 49%
% activity (Plk1(h)): 128%
% activity (TAK1(h)): 124%
% activity (Tie2(R849W)(h)): 89%
% activity (EphA2(h)): 95%

Source: patent US10087225B2, “Formulation of MK2 inhibitor peptides” (MOERAE MATRIX, INC., priority 2015, dated 2018)
